Read-outs that look alike come from different tables or passages of the source.
T1: Recombinant Human Fc gamma RIIA/CD32a (R167) Protein (R&D Systems), His-tagged (human, UniProt P12318 36-218)
T1 construct: also called human FcγRIIa; hFcγRIIa
T1 chain: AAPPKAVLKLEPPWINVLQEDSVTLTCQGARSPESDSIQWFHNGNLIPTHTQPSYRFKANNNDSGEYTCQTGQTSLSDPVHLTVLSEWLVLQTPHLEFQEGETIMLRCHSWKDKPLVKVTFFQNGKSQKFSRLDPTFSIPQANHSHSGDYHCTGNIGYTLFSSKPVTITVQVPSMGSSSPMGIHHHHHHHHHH

T2: Recombinant Human Fc gamma RIIB/C (CD32b/c) Protein (R&D Systems), His-tagged (human, UniProt P31994 46-217)
T2 construct: also called human FcγRIIb/c; hFcγRIIb/c
T2 sequence: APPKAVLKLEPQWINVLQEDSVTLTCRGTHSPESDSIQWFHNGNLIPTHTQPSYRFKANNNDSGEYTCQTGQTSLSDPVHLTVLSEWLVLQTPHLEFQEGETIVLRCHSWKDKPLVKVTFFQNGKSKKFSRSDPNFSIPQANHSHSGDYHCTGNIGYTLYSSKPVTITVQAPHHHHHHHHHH

T3: Recombinant Human Fc gamma RIIA/CD32a (H167) Protein (R&D Systems), His-tagged (human, UniProt P12318 34-218)
T3 construct: also called human FcγRIIa (H167); hFcγRIIa (H167)
T3 sequence: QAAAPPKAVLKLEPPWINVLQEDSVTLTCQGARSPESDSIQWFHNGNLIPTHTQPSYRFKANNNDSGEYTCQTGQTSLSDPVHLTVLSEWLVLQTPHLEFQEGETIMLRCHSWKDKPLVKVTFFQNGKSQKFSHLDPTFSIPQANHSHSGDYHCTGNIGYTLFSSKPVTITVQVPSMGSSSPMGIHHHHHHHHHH

T4: Recombinant Cynomolgus Fc gamma RIIB protein (R&D Systems), His-tagged (cynomolgus)
T4 construct: also called cynomolgus FcγRIIb; cFcγRIIb
T4 chain: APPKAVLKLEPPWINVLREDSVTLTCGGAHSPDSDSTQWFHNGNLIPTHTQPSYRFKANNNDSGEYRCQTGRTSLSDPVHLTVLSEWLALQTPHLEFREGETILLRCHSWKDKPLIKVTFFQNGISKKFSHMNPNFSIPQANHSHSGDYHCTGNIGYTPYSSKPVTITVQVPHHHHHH

T5: Recombinant Cynomolgus Fc gamma RIIA/CD32a Protein (R&D Systems), His-tagged (cynomolgus)
T5 construct: also called cynomolgus FcγRIIa; cFcγRIIa
T5 chain: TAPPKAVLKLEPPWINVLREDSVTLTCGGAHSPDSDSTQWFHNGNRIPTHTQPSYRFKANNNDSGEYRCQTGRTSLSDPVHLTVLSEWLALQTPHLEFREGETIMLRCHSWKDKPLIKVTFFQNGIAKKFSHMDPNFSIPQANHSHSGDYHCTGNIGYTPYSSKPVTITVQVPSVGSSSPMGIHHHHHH

T6: Recombinant Cynomolgus Fc gamma RIII/CD16 Protein (R&D Systems), His-tagged (cynomolgus, UniProt Q8SPW2 17-208)
T6 construct: also called cynomolgus FcγRIII; cFcγRIII
T6 chain: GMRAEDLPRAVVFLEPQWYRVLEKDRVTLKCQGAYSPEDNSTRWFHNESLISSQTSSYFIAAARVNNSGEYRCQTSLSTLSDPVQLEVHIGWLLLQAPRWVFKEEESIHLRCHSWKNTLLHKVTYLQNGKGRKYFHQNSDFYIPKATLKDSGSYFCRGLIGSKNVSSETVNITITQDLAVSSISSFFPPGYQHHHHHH

T7: Recombinant Cynomolgus Monkey Fc gamma RI/CD64 Protein, CF (R&D Systems), His-tagged (cynomolgus, UniProt P12314 11-288 (human entry))
T7 construct: also called cynomolgus FcγRI; cFcγRI
T7 chain: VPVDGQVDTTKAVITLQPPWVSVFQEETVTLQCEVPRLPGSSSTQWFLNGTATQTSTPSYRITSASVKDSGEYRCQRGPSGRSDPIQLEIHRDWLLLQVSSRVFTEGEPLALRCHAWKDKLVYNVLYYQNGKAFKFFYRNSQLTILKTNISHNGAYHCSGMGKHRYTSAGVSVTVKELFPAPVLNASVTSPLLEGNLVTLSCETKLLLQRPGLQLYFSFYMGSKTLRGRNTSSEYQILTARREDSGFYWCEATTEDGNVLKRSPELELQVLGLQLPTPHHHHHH

T8: Recombinant Human Fc gamma RIIIB/CD16b Protein (R&D Systems), His-tagged (human, UniProt O75015 20-208)
T8 construct: also called human FcγRIIIb; hFcγRIIIb
T8 chain: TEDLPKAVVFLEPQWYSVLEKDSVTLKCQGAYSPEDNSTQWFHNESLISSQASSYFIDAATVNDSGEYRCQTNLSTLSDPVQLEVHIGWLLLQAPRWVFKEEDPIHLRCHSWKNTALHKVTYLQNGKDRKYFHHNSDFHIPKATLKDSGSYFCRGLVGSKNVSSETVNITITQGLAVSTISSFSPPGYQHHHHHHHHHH


Columns and labels:
[1] = biological target: T1, Recombinant Human Fc gamma RIIA/CD32a …; experiment: SPR (Biacore T200); receptor immobilized directly on CM5 chip, antibody as analyte at 4.7 µM
[2] = biological target: T2, Recombinant Human Fc gamma RIIB/C …; experiment: as above
[3] = biological target: T3, Recombinant Human Fc gamma RIIA/CD32a …; experiment: as above
[4] = biological target: T9, Recombinant Human Fc gamma RIIIA/CD16a protein (R&D Systems), His-tagged (human, UniProt P08637 17-208); experiment: as above
T9 construct: also called human FcγRIIIa; hFcγRIIIa

[5] = biological target: T4, Recombinant Cynomolgus Fc gamma RIIB …; experiment: as above
[6] = biological target: T5, Recombinant Cynomolgus Fc gamma …; experiment: as above
[7] = biological target: T6, Recombinant Cynomolgus Fc gamma …; experiment: as above
[8] = biological target: T7, Recombinant Cynomolgus Monkey Fc gamma …; experiment: SPR (Biacore T200); His-tagged receptor captured on anti-His antibody chip, antibody as analyte at 4.7 µM
[9] = biological target: T10, human FcRn (human neonatal Fc receptor large subunit p51 and beta2-microglobulin), biotinylated (human, UniProt P55899 24-297; P61769 21-119, biotinylated (site not stated)); experiment: BLI (Octet RED384), biotinylated FcRn on streptavidin biosensor, binding and dissociation at pH 6.0
[10] = biological target: T10, human FcRn (human neonatal Fc receptor …); experiment: BLI (Octet RED384), biotinylated FcRn on streptavidin biosensor, binding at pH 6.0, dissociation at pH 7.4
[11] = biological target: T8, Recombinant Human Fc gamma RIIIB/CD16b …; experiment: SPR (Biacore T200); receptor immobilized directly on CM5 chip, antibody as analyte at 4.7 µM
[12] = biological target: T11, Recombinant Human Fc gamma RIIIA/CD16a (V176F) Protein (R&D Systems), His-tagged (human, UniProt P08637 17-208); experiment: as above
T11 construct: no further substitution applied; also called human FcγRIIIa (V176F); hFcγRIIIa (V176F)

[13] = biological target: T10, human FcRn (human neonatal Fc receptor …); experiment: BLI (Octet RED384), biotinylated FcRn on streptavidin biosensor, binding at pH 6.0, dissociation at pH 7.4; dissociation at pH 7.4 after binding at pH 6.0
[14] = biological target: T8, Recombinant Human Fc gamma RIIIB/CD16b …; experiment: SPR (Biacore T200): human FcγRIIIb immobilised directly on a CM5 chip, antibody as analyte; RU plotted against antibody concentration
[15] = biological target: T9, Recombinant Human Fc gamma RIIIA/CD16a …; experiment: SPR (Biacore T200): human FcγRIIIa immobilised directly on a CM5 chip, antibody as analyte; RU plotted against antibody concentration
[16] = biological target: T2, Recombinant Human Fc gamma RIIB/C …; experiment: SPR (Biacore T200); receptor immobilized directly on CM5 chip, antibody as analyte at 4.7 µM; remark: listed apart in the source
[17] = biological target: T3, Recombinant Human Fc gamma RIIA/CD32a …; experiment: as above; remark: listed apart in the source
[18] = biological target: T9, Recombinant Human Fc gamma RIIIA/CD16a …; experiment: as above; remark: listed apart in the source
[19] = biological target: T8, Recombinant Human Fc gamma RIIIB/CD16b …; experiment: as above
[20] = biological target: T11, Recombinant Human Fc gamma RIIIA/CD16a …; experiment: as above; remark: listed apart in the source
[21] = biological target: T4, Recombinant Cynomolgus Fc gamma RIIB …; experiment: as above
[22] = biological target: T5, Recombinant Cynomolgus Fc gamma …; experiment: as above
[23] = biological target: T6, Recombinant Cynomolgus Fc gamma …; experiment: as above

T11 sequence (P08637 other isoform, or with tags, fused parts or gaps V176F V176F): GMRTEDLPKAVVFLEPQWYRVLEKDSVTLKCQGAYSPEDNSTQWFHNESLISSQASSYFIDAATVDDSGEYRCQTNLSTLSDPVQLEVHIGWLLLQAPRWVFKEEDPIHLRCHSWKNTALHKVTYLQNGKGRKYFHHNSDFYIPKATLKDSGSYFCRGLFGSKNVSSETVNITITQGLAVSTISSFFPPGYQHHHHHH
T10 sequence (P55899 24-297 limits assumed, chain 1 of 2): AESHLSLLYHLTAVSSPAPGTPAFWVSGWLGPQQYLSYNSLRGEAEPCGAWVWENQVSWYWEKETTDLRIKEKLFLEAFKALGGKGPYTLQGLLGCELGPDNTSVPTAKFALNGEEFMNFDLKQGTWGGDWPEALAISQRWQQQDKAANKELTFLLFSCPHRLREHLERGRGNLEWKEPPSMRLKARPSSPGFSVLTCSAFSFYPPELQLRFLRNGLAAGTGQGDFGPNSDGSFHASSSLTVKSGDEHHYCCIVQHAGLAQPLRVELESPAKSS
T10 sequence (P61769 21-119 limits assumed, chain 2 of 2): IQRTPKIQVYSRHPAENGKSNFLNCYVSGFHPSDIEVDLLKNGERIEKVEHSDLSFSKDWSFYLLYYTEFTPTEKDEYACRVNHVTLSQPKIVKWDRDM
T9 sequence (P08637 other isoform, or with tags, fused parts or gaps): as the sequence (P08637 other isoform, or with tags, fused parts or gaps V176F V176F) above, with F160V counted along it

| Binder | binding response (RU) [1] | binding response (RU) [2] | binding response (RU) [3] | binding response (RU) [4] | binding response (RU) [5] | binding response (RU) [6] | binding response (RU) [7] | binding response (RU) [8] | Kd [9] | binding response (RU) [11] | binding response (RU) [12] | also measured |
| --- | --- | --- | --- | --- | --- | --- | --- | --- | --- | --- | --- | --- |
| L234A/L235A (LALA) variant of IgG1 WT of the anti-EGFR antibody panitumumab (antibody, Mutations in both CH2 domains) heavy: not shown light: not shown | 330 RU | 78 RU | 160 RU | 420 RU | 270 RU | 94 RU | 540 RU | 3200 RU | 5.5 nM |  |  | koff [10]: 2.8 s⁻¹ |
| IgG1 WT of the anti-EGFR antibody panitumumab (IgG2 Fc region replaced with a human wildtype IgG1 Fc region) (antibody, The legends were followed; also called anti-EGFR antibody IgG1 WT) heavy: not shown light: not shown | 1700 RU | 650 RU | 1400 RU | 2400 RU | 840 RU | 910 RU | 2800 RU | 6700 RU | 5.8 nM | 250 RU | 530 RU | koff [13]: 2.1 s⁻¹ |
| L234A/L235A/D265A (LALA-DA) variant of IgG1 WT of the anti-EGFR antibody panitumumab (antibody, Mutations in both CH2 domains; positions are EU numbers) heavy: QVQLQESGPGLVKPSETLSLTCTVSGGSVSSGDYYWTWIRQSPGKGLEWIGHIYYSGNTNYNPSLKSRLTISIDTSKTQFSLKLSSVTAADTAIYYCVRDRVTGAFDIWGQGTMVTVSSASTKGPSVFPLAPSSKSTSGGTAALGCLVKDYFPEPVTVSWNSGALTSGVHTFPAVLQSSGLYSLSSVVTVPSSSLGTQTYICNVNHKPSNTKVDKRVEPKSCDKTHTCPPCPAPEAAGGPSVFLFPPKPKDTLMISRTPEVTCVVVAVSHEDPEVKFNWYVDGVEVHNAKTKPREEQYNSTYRVVSVLTVLHQDWLNGKEYKCKVSNKALPAPIEKTISKAKGQPREPQVYTLPPSREEMTKNQVSLTCLVKGFYPSDIAVEWESNGQPENNYKTTPPVLDSDGSFFLYSKLTVDKSRWQQGNVFSCSVMHEALHNHYTQKSLSLSPGK light: not shown |  | 20 RU | 24 RU | 0.4 RU | 110 RU | 25 RU | 8.4 RU |  |  | 0.3 RU | -2.2 RU | binding result [14]: no binding (tested: 4.7 µM); binding result [15]: no binding (tested: 4.7 µM); binding response (RU) [16]: 20 RU; binding response (RU) [17]: 24 RU; binding response (RU) [18]: 0.4 RU; binding response (RU) [19]: 0.3 RU; binding response (RU) [20]: -2.2 RU; binding response (RU) [21]: 110 RU; binding response (RU) [22]: 25 RU; binding response (RU) [23]: 8.4 RU |
